Assay results published in patent US20240059766A1 (VOYAGER THERAPEUTICS, published 2024).
Non-standard residues stand in square brackets, D forms with d. No end group written: not given here. pT = C[C@@H](OP(=O)(O)O)[C@H](N)C(=O)O; pS = N[C@@H](COP(=O)(O)O)C(=O)O

Experiments:
iPHF = iPHF (UniProt P10636-8 2-441); experiment: BLI (Octet), antibody on biosensor tip
Protocol: Anti-human tau antibodies were assessed for affinity for iPHF by Octet (ForteBio, Menlo Park, CA) analysis. A set of recombinant human IgG1 antibodies were prepared with clone-specific variable domain pairs selected from those presented in Table 1 and human IgG1 constant domains. Candidate antibodies were immobilized on biosensor tips (ForteBio) in kinetic buffer (ForteBio). Biosensor tips were then washed before introduction of a solution of iPHF in kinetic buffer for analysis of association and dissociation with candidate antibodies.

[1] = molecular target: T1, Tau phospho-peptide (pS235) (human); experiment: one point ELISA on the pS235 peptide
T1 construct: also called pS235 phospho-peptide
T1 peptide: KVAVVRTPPK[pS]PSSAKPS

[2] = molecular target: T2, Enriched paired helical filament (ePHF; sarkosyl insoluble tau) (human, UniProt P10636 2-758, pathological (hyperphosphorylated) tau isolated from brain; sites not stated); experiment: direct ELISA, coated antigen
T2 construct: aggregate isolated from AD frontal cortical tissue
T2 sequence (P10636 other isoform, or with tags, fused parts or gaps limits assumed): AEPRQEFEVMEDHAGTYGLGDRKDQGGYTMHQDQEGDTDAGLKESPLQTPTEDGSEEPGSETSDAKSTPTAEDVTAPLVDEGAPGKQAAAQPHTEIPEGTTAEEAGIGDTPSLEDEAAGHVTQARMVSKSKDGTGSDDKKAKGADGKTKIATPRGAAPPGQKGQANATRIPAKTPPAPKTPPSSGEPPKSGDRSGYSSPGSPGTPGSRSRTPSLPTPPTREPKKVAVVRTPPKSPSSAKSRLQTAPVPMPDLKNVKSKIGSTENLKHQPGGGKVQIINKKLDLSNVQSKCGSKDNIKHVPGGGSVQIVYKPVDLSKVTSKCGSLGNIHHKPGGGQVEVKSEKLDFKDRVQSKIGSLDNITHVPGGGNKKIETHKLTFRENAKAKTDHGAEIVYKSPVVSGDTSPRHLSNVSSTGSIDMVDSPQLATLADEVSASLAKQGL
Protocol: (§1) A set of recombinant human IgG1 antibodies were prepared with clone-specific variable domain pairs selected from those presented in Table 1 and human IgG1 constant domains. These candidate antibodies were analyzed for binding to ePHF and specificity for ePHF over wild type tau by direct ELISA.
(§2) For direct ePHF and wildtype tau ELISA, plates were first coated with ePHF or wild type tau. Antigen solutions were prepared in PBS and 50 μL were pipetted into each well. Plates were covered and incubated for one hour at 37° C. or overnight at 4° C. Plates were then washed and blocked by addition of 150 μl of blocking buffer to each well and incubated one hour at room temperature. Plates were then washed before addition of serially diluted candidate antibody samples prepared in blocking buffer. Detection of candidate antibody binding was carried out by washing plates and adding a solution of enzyme-labeled secondary antibody in blocking buffer to each well. Secondary antibody binding was detected by addition of substrate and spectrophotometric analysis of resulting reaction product.

wild type tau = wild type tau (human, UniProt P10636 2-758); experiment: direct ELISA, coated antigen
wild type tau, sequence (P10636 other isoform, or with tags, fused parts or gaps limits assumed): as above
Protocol: as §1, §2

[3] = molecular target: T3, AT8 peptide (amino acids 195-215 of tau) (human, phospho-peptide; the phosphorylated sites are not stated; immobilized on streptavidin biosensor tips); experiment: BLI (Octet), peptide on streptavidin tip
T3 peptide: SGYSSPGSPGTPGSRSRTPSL
Protocol: Briefly, phospho-peptides were immobilized on streptavidin biosensor tips and the binding ability of each antibody was assessed using an eight-point concentration gradient.

[4] = molecular target: T4, Tau191-214 phospho-peptide (pS199) (human, pS199 (phosphoserine); SCBio-4PEG in the ELISA); experiment: BLI
T4 construct: also called pS199 peptide

[5] = molecular target: T5, SCBio-4PEG-Peptide (Tau191-214) pS199-old (human, pS199; SCBio-4PEG at the peptide as in the table head); experiment: one point ELISA
T5 construct: the suffix old is not explained
T5 sequence (peptide, as listed by the source): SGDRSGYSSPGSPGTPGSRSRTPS
Excerpt: (§3) One-point ELISA was used to determine differential binding based on the individual phosphorylation patterns of each peptide. OD values (450 nm) were collected (as shown in Table 13), where a stronger positive signal is shown as a higher OD value, which is indicative of increased binding.

[6] = molecular target: T4, Tau191-214 phospho-peptide (pS199); experiment: one point ELISA
Excerpt: as §3

AC04 peptide = molecular target: T6, AC04 peptide (human, pT212, pT217: CSR(pT)PSLP(pT)PPTREPK); experiment: one point ELISA
T6 peptide: CSRXPSLPXPPTREPK
Excerpt: as §3

[7] = molecular target: T7, Tau204-222 phospho-peptide (pS214) (human, also: SCBiot-(dPEG4) in the ELISA); experiment: one point ELISA
T7 peptide: GTPGSRSRTP[pS]LPTPPTRE
Excerpt: as §3

wtTau C2 = molecular target: T8, wtTau C2 (human); experiment: one point ELISA
T8 peptide: PTREPKKVA
Excerpt: as §3

[8] = molecular target: T9, Tau204-222 phospho-peptide (pT212/pS214) (human, also: SCBiot-(dPEG4) in the ELISA); experiment: one point ELISA
T9 peptide: GTPGSRSR[pT]P[pS]LPTPPTRE
Excerpt: as §3

[9] = molecular target: T10, Tau204-222 phospho-peptide (pT212) (human, also: SCBiot-(dPEG4) in the ELISA); experiment: one point ELISA
T10 peptide: GTPGSRSR[pT]PSLPTPPTRE
Excerpt: as §3

[10] = molecular target: T11, AT270 peptide (pT181; Tau172-186) (human); experiment: one point ELISA
T11 peptide: PAKTPPAPK[pT]PPSSG

iPHF, sequence (P10636 other isoform, or with tags, fused parts or gaps): as the sequence (P10636 other isoform, or with tags, fused parts or gaps limits assumed) above

B1: VY009 (antibody, V domains shown)
VH: QITLKESGPTLVKPTQTLTLTCTLSGFSLSTSEVGVGWIRQPPGKALEWLAIIYWNDHKRYSPSLKNRLTFTKDTSKNQVVLTMTNMDPVDTATYYCARRVTGEGFDPWGQGTLVTVSS
VL: SYELTQPPSVSVSPGQTARITCSGDALPKQYAYWYQQKPGQAPVLVIFKDTERPSGIPERFSGSSSGTTVTLTISGVQAEDEADYYCQSADSSGSYVFGTGTKVTVL
Q: What does the source list for B1?
A: Kd (iPHF): 1100 pM; binding result [1]: no binding (tested: not printed (one point)); EC50 [2]: 1740 pM

B2: VY018 (antibody, V domains shown)
VH: QVQLQESGPGLVKPSETLSLTCTVSGGSISNYYWSWIRQPAGKGLEWIGRIYTSGDTYYNPSLQSRVTMSVDTSKNQFSLKLSAVTAADTAVYYCARAGIVGTPGLGMDVWGQGTTVTVSS
VL: SYELTQPPSVSVSPGQTARITCSGEALPKQYAYWYQQKPGQAPVLVIYKDSERPSGIPERFSGSSSGTTVTLTISGVQAEDEADYYCQSADSSGTYRVFGGGTKLTVL
Q: How did the Kd (iPHF) turn out when B2 was run?
A: 3000 pM

Q: Does B2 bind [1]?
A: no binding (tested: not printed (one point))

B3: VY019 (antibody, V domains shown)
VH: QVQLQESGPGLVKPSETLSLTCTVSGGSISSYYWTWIRQPAGKGLEWIGRIDTSGSTNYNPSLKSRVTMSIDTSKKQFSLKLSSVTAADTAVYYCARGGDGYRYWGQGTLVTVSS
VL: SYELTQPPSVSVSPGQTARITCSGDALPKQYACWYQQKPGQAPVLVIYKDSERPSGIPERFSGSSSGTTVTLTITGVQAEDEADYYCQSTDSSGSWVFGGGTKLTVL
Q: What does the source list for B3?
A: binding result [1]: no binding (tested: not printed (one point)); binding result [2]: no binding; binding result (wild type tau): no binding

B4: VY007 (antibody, V domains shown)
VH: EVQLVESGGGLVQPGGSLRLSCAASRFTFSNYNMNWVRQAPGKGLEWISYISSSSSTIYYADSVKGRFTISRDNAKNSLSLQMNSLRDEDTAVYYCASLGRGYWGQGTLVTVSS
VL: not shown
Q: For B4, which Kd [3] is on record?
A: 18.2 pM

Q: What about the Kd (iPHF) of the same binder?
A: 600 pM

Q: And the EC50 [2]?
A: 180 pM

Q: Does B4 bind [4]?
A: no binding

Q: And the OD450 [5]?
A: 0.057 OD450 nm

Q: And the OD450 [6]?
A: 0.057 OD450 nm

B5: VY001 (antibody, V domains shown)
VH: EVQLVESGGGLVQPGGSLRLSCAASGFTFSSYNMNWVRQAPGKGLEWISYISSSSNTIYYADSVKGRFTVSRDNAKNSLYLQMNSLRDEDTAVYYCATLGRGYWGQGTLVIASS
VL: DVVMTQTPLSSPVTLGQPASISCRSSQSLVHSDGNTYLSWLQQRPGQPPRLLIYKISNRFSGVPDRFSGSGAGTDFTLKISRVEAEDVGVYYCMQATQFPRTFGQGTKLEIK
Q: Which Kd [3] does the source give for B5 here?
A: 4.35 pM

Q: And the Kd (iPHF)?
A: 7700 pM

Q: And the EC50 [2]?
A: 20 pM

Q: Does B5 bind [4]?
A: no binding

Q: What about the OD450 [5] of the same binder?
A: 0.059 OD450 nm

Q: What about the OD450 [6] of the same binder?
A: 0.059 OD450 nm

B6: VY012 (antibody, V domains shown)
VH: EVQLLESGGGLVQPGGSLRLSCAASGFTYSSYAMSWVRRAPGKGLEWISIISGSSSITYYADSMKGRFTISRDNSKNTLFLQMNSLRAEDTAVYYCAKGGRYGYFQHWGQGTLVTVSS
VL: SYVLTQPPSVSVAPGQTARITCGGNNIGSKSVHWYQQKPGQAPVLVVYDDSDRPSGIPERFSGSNSGNTATLTISRVEAGDEADYYCQVWDSSSDPVVFGGGTMLTVL
Q: What does the source list for B6?
A: Kd (iPHF): 5100 pM; EC50 [2]: 40 pM; EC50 (wild type tau): 10 pM

B7: VY013 (antibody, V domains shown)
VH: QVTLKESGPVLVKPTETLTLTCTVSGFSLINARMAVSWIRQPPGKALEWLAHIFSNDEKSYSTSLKSRLTISKDTSKSQVVLIMTNMDPVDTATYYCARIRGYSYNYGMDVWGQGTTVTVSS
VL: DIVMTQSPLSLPVIPGEPASISCRSSQSLLHSNGYIYLDWYLQKPGQSPQLLIYVGSNRASGVPDRFSGSGSGTDFKLKISRVEAEDVGVYYCMQTLQIPRTFGGGTKVEIK
Q: With B7 as the binder, how does the Kd (iPHF) read?
A: 2900 pM

Q: What about the EC50 [2] of the same binder?
A: 60 pM

Q: What about the EC50 (wild type tau) of the same binder?
A: 980 pM

B8: VY014 (antibody, V domains shown)
VH: EVQLVESGGGLVQPGGSLRLSCAASGFTFNNYDMHWVRQAAGKGLEWVSTIGAAGDTYYPGSVKGRFIISRENAKNSLYLQMNSLRAGDTAVYYCARAGETLEGATIGYYYGMDVWGQGTTVTVSS
VL: DILMTQSPLSLPVTPGEPASISCRSSQSLLHSNGYNYLDWYLQKPGQSPQLLIYLGSNRASGVPDRFSGSGSGTDFTLKFSRVEAEDVGLYYCMQALQIPLTFGGGTKVEIK
Q: Which Kd (iPHF) does the source give for B8 here?
A: 5300 pM

Q: And the EC50 [2]?
A: 6230 pM

Q: And the EC50 (wild type tau)?
A: 40 pM

B9: VY004 (antibody, V domains shown)
VH: EVQLVESGGGLVQAGGSLRLSCAASGFTFSDYSMNWVRQAPGKGLEWVSYIRSSSSIIYYADSVKGRFTISRDNAKNSLHLQMNSLRDEDTAVYYCARRGHFDYWGQGTLVTVSS
VL: EIVLTQSPATLSLSPGERATLSCRASQSVSDYLAWYQQKPGQAPRLFIYDVSKRATGIPARFSGSGSGTDFTLTISSLEPEDFAVYYCQQRSNWPLTFGGGTKVEIK
Q: With B9 as the binder, how does the Kd (iPHF) read?
A: 3700 pM

Q: What about the EC50 [2] of the same binder?
A: 70 pM

Q: What about the OD450 (AC04 peptide) of the same binder?
A: 2.85 OD450 nm

Q: And the OD450 [7]?
A: 0.069 OD450 nm

Q: And the OD450 (wtTau C2)?
A: 0.169 OD450 nm

Q: What about the OD450 [8] of the same binder?
A: 0.067 OD450 nm

Q: What about the OD450 [9] of the same binder?
A: 0.082 OD450 nm

B10: VY005 (antibody, V domains shown)
VH: EVQLVESGGGLVQPGGSLRLSCAASGFTFSSYSMNWVRQAPGKGLEWISYISSSNSTIKYADSVKGRFTISRDNAKNSLYLQMNSLRDEDTAVYYCARRSLGDYWGQGTLVIVSS
VL: DIQLTQSPSFLSASVGDRVTITCRASQGISCSLAWYQQKPGKAPKLLIYAASTLQSGVPSRFSGSGSGTEFTLTISSLQPEDFATYYCQQFNSYPFTFGPGTKVDIK
Q: What does the source list for B10?
A: Kd (iPHF): 1000 pM; EC50 [2]: 70 pM; OD450 (AC04 peptide): 2.83 OD450 nm; OD450 [7]: 0.092 OD450 nm; OD450 (wtTau C2): 0.153 OD450 nm; OD450 [8]: 0.111 OD450 nm; OD450 [9]: 0.087 OD450 nm

B11: VY006 (antibody, V domains shown)
VH: EVQLVESGGGLVQPGGSLRLSCAASGFTFSSYTMNWVRQAPGKGLEWVSYISSSSSTIYYADSVKGRFTISRDNAKNSLYLQMNSLRDEDTAVYYCASLGRGDCWGQGTLVTVSS
VL: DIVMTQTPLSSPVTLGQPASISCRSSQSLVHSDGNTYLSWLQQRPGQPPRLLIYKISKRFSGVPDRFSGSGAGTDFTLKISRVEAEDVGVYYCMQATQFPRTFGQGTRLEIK
Q: What does the source list for B11?
A: Kd [3]: 3.82 pM; Kd (iPHF): 1500 pM; EC50 [2]: 110 pM; binding result [4]: no binding; OD450 [5]: 0.063 OD450 nm; OD450 [6]: 0.054 OD450 nm

B12: VY020 (antibody, V domains shown)
VH: EVQLVESGGGLVQPGGSLRLSCAASGFTFSSYSMNWVRQAPGKGLEWISYISSSNSTIKYADSVKGRFTISRDNAKNSLYLQMNSLRDEDTAVYYCARRSLGDYWGQGTLVIVSS
VL: EIVLTQSPATLSLSPGERATLSCRASQSVSSYLAWYLQKPGQAPRLLIYDVSNRATGIPARFSGSGSGTDFTLTISRLEPEDFAVYYCQQRRNWPYTFGQGTKLEIK
Q: Does B12 bind [3]?
A: no binding

Q: What about the Kd (iPHF) of the same binder?
A: 2600 pM

Q: Does B12 bind [10]?
A: no binding

Q: Does B12 bind [4]?
A: no binding

B13: VY017 (antibody, V domains shown)
VH: EVQLVESGGGLVQPGGSLRLSCAASGFTFSSYSMNWVRQAPGKGLEWVSYIRSSSSTIYYADSVKGRFTISRDNAKKSLYLQMNSLRDEDTAVYYCARRSIADYWGQGTLVTVSS
VL: EIVLTQSPATLSSSPGERATLSCRASQSVTSYLNWYQQKPGQAPRLLIYDASNRATGIPARFSGSGSGTDFTLTISSLEPEDFALYYCQQRSNWPYTFGQGTKLEIK
Q: How did the Kd (iPHF) turn out when B13 was run?
A: 3700 pM

B14: VY016 (antibody, V domains shown)
VH: EVQLVESGGGLVQPGGSLRLSCAASGFTFSSYSMNWVRQAPGKGLEWVSYISRSGSTIYYADSVEGRFTISRDNAYNSLYLQMISLRDDDTAVYYCARGNWAYWGQGILVTVSS
VL: QSVLTQPPSVSGAPGQRVTISCTGSSSNIGAGYDVHWYQQLPGTAPKLLIYGNSNRPSGVPDRFSGSKSGTSASLAITGLQAEDETDFYCQSYDSSLSGSVFGGGTKLTVL
Q: Does B14 bind [2]?
A: no binding

Q: Does B14 bind (wild type tau)?
A: no binding
